Assay results published in paper PMC11812572 (2025).

How the values were obtained:
[1] = target: T1, recombinant human cytoplasmic dynein 1 complex with mEGFP fused to its heavy chain, mEGFP-dynein (human, UniProt Q14204 1-4646; O43237-1 1-492; P63172 1-113; Q9NP97-1 1-96; P63167 1-89); assay: apparent, from TIRF dynein activation (run frequency); with 14 nM dynactin and 100 nM Lis1
[2] = target: T1, recombinant human cytoplasmic dynein 1 …; assay: apparent, from TIRF dynein activation (run frequency); with 14 nM dynactin and 200 nM NuMA^N-term

B1: AF546- or AF647-labelled SNAP-tagged human NuMA N-terminal fragment (first 705 aa), NuMA^N-term (domain or fragment)
chain: MTLHATRGAALLSWVNSLHVADPVEAVLQLQDCSIFIKIIDRIHGTEEGQQILKQPVSERLDFVCSFLQKNRKHPSSPECLVSAQKVLEGSELELAKMTMLLLYHSTMSSKSPRDWEQFEYKIQAELAVILKFVLDHEDGLNLNEDLENFLQKAPVPSTCSSTFPEELSPPSHQAKREIRFLELQKVASSSSGNNFLSGSPASPMGDILQTPQFQMRRLKKQLADERSNRDELELELAENRKLLTEKDAQIAMMQQRIDRLALLNEKQAASPLEPKELEELRDKNESLTMRLHETLKQCQDLKTEKSQMDRKINQLSEENGDLSFKLREFASHLQQLQDALNELTEEHSKATQEWLEKQAQLEKELSAALQDKKCLEEKNEILQGKLSQLEEHLSQLQDNPPQEKGEVLGDVLQLETLKQEAATLAANNTQLQARVEMLETERGQQEAKLLAERGHFEEEKQQLSSLITDLQSSISNLSQAKEELEQASQAHGARLTAQVASLTSELTTLNATIQQQDQELAGLKQQAKEKQAQLAQTLQQQEQASQGLRHQVEQLSSSLKQKEQQLKEVAEKQEATRQDHAQQLATAAEEREASLRERDAALKQLEALEKEKAAKLEILQQQLQVANEARDSAQTSVTQAQREKAELSRKVEELQACVETARQEQHEAQAQVAELELQLRSEQQKATEKERVAQEKDQLQEQLQ
modifications: SNAP-tag labelled with SNAP-Surface Alexa Fluor 546 or SNAP-Surface Alexa Fluor 647
Kd [1]: 51 nM

B2: Lis1 (protein)
chain: MVLSQRQRDELNRAIADYLRSNGYEEAYSVFKKEAELDVNEELDKKYAGLLEKKWTSVIRLQKKVMELESKLNEAKEEFTSGGPLGQKRDPKEWIPRPPEKYALSGHRSPVTRVIFHPVFSVMVSASEDATIKVWDYETGDFERTLKGHTDSVQDISFDHSGKLLASCSADMTIKLWDFQGFECIRTMHGHDHNVSSVAIMPNGDHIVSASRDKTIKMWEVQTGYCVKTFTGHREWVRMVRPNQDGTLIASCSNDQTVRVWVVATKECKAELREHEHVVECISWAPESSYSSISEATGSETKKSGKPGPFLLSGSRDKTIKMWDVSTGMCLMTLVGHDNWVRGVLFHSGGKFILSCADDKTLRVWDYKNKRCMKTLNAHEHFVTSLDFHKTAPYVVTGSVDQTVKVWECR
modifications: full-length human Lis1; N-terminal His6-TEV tag (unlabelled construct) or mCherry fusion left out; homodimer by general knowledge, copy number not printed in the text given
Kd [2]: 148 nM
